The nanobody polyreactivity screen of Harvey et al. (2022)

Assay: yeast display, Sf9 membrane polyspecificity reagent, FACS + sequencing; frameworks hold sequencing errors
Method in brief: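 In a synthetic yeast display library (Saccharomyces cerevisiae BJ5465), nanobody expression was induced with galactose for 36–48 hours. FACS gates were set low and high (top ~1%) using anti-HA fluorescence for expression and streptavidin fluorescence for binding of the Sf9 membrane reagent. Each polyreactivity label is drawn from the gate of origin.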

Sequence	polyreactivity (PSR sort gate)
QVQLVESGGGLVQAGGSLRLSCAASGRIFIYNAMGWYRQAPGKERELVAAISSGGDTYYADSVKGRFTISRDNAKNTVYLQMNSLKPEDSAVYYCAATFVVKGTRFGYWGQGTQVTVSS	high polyreactivity
QVQLVESGGGLVQAGGSLRLSCAASGITLSQNAMGWYRQAPGKERELVAAIDSGGVDTYYADSVKGRFTISRDNAKNTVYLQMNSLKPEDTAVYYCAVDYSYEYEYWGQGTQVTVSS	low polyreactivity
QVQLVESGGGLVQAGGSLRLSCAASGYTFGYNAMGWYRQAPGKERELVANITWRGGSTNYADSVKGRFTISRDNAKNTVYLQMNSLKPEDTAVYYCAADRPWYYGRYYYWGQGTQVTVSS	high polyreactivity
QVQLVESGGGLVQAGGSLRLSCAASGFTFRLYVMGWYRQAPGKERELVAAISSRGGSTYYADSVKGRFTISRDNAKNTVYLQMNSLKPEDTAVYYCAADRPRGRETVDYWGQGTQVTVSS	high polyreactivity
QVQLVESGGGLVQAGGSLRLSCAASGSILSRYAMGWYRQAPGKERELVATITRRGGSTFYADSVKGRFTISRDNAKNTVYLQMNSLKPEDTAVYYCAVGRLFWGQGTQVTVSS	low polyreactivity
QVQLESGGGLVQAGGSLRISCAASGSTFVTYDMGWDRQAPGKEREIVAAIDWSGDSTYADSVKGRFTISRDNAKNTVYLQMNSLIPEDTAVYSCAADYDNYGDVYPYYTAGYGYWGQGTQVTVSS	low polyreactivity
QVQLVESGGGLVQAGGSLRLSCAASGSIFGFYVMGWYRQAPGKERELVAAISRGGTRTYYAVSVKGRFTISRDNAKNTVYLKMNSLKPEDTAVYYCAKYEGGSCTGPRSDYWGQGTQVTVSS	high polyreactivity
QDQLVESGGGLVQAGGSLRLSCAASGSIFTKYAMGLYRQAPGKEREFVAAIDVNGGSTRYADSVKGRFTISRDYANNTVYLQMYSLKPEDTAVYYCAKDYTASYYPQGLYDYWGQGTQVTVSS	low polyreactivity
QVQLVESGGGLVQAGGSLRLSCAASGQIFFVYAMGRYRQAPGKESELVAAISFSAGRTYYADSVKGRFTISRDNAKNTVYLQMNSLKPEDTAVYYCNALRQDTGHYPYDYWGQGTQVTVSS	low polyreactivity
QVQLVESGGGLVQAGGSLRLSCAASGSTLQINGMGGYRQAPGKERELVAAISIGGDTNYADSVKGRFTISRDNAKNTEMNSLKTEDTAVYYCNTDYFGSLVVVIFDYWGQGTQVTVSS	low polyreactivity
QVQLVESGGGLVQAGGSLRLSCASSGFTFWRNAMGWYRQAPGKERELVAAINWSGGSTYYADSVKGRFTISRDNAKNTVYLQMNSLKPEDTAVYYCAADLSSRGISQDDYWGQCTQVTVSS	high polyreactivity
QVQLVESGGGLVQAGGSLRLICAASGRIFEKYAMGWYRQEPGKERELVAAISSSGGSTYYADSVKGRFTISRDIAKNTVYLQMNSLKPDDTAVYYCAKLVVVPFYYWGQGTQVSVSS	high polyreactivity
QVQLLESGGGLVQAGGSLRLSCAASRTISYAGTRLWYRQAPGKEREFVAGIGVGSNTNYADSVKGRYTIIRDNAINTVYLQMTSLKPEDTAVYYCAVGGYAPLGRPFWGQGTQVSVSS	low polyreactivity
QVQLVESGGGLVQAGGSLRLSCAASGFTFERYTMGWYRQAPGKEREMVATISRRSGRTSYADSVKGRFTISRDYAKNTVYLQMNRLQPEDTAVYYCAVDDAYPDRYDYWGQGTQVTVSS	high polyreactivity
QVQLVESGGGLVQAGGSLRLSCAASGGIFTYYAMGGYRQAPGKERELVAAITWSGGSTYYADSVKGRFTISRDNAKNTVYLQMNSLKPEETAVYYCNAVVLHVTTDNSTFTTDDYWGHGTQVTVSS	low polyreactivity
QVQLVESGGGLVQAGGSLRLSCAASGSIFGANVMGWYRQAPGKERELVAAISFSGGSTFYADSVKGRFTISRDNAKNTVYLQMNSLKPEDTAVYYCAASYGGKGVKYYYWGQGTQVTVSS	high polyreactivity
QVQLVESGGGLVQAGGSLRLICAASGFTIVPNAMGWYRQAPGKERELVAAISRSTGGTYYADSVKGRFTISRDNAKNTVYLQMNSLKPEDTAVYYCAAEYWYWTYGMDYWGQGTQVTVSS	high polyreactivity
